Reference: the supplement of paper PMC7125110
± gives the standard error. This sample holds only a part of the variants without activity.

B1: glmS ribozyme (parent)
chain: AUAAAAGCGCCAGAACUACAGAAAUGUAGUUGACGAGGAGGAGGUUUAUCGAAUUUUCGGCGGAUGCCUCCAAA

What was measured:
Conditions in all cases: with glucosamine-6-phosphate
glucosamine-6-phosphate [1] = variants of: B1; experiment: self-cleavage kobs at 160 uM GlcN6P; higher = faster cleavage; RNA array
In short: (§1)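 Sequenced MiSeq chips were the platform: E. coli RNA polymerase transcribed barcoded ribozyme variants on them in situ, and a hybridised Cy3 probe tracked these at 37 °C. After glucosamine-6-phosphate (40 μM to 10 mM) in HEPES/KCl/Mg(OAc)2 buffer was flowed in, tiles were imaged over ~14 h. Signals normalised to baseline and to non-cleaving reference variants were reduced to per-tile medians and fit to one- or two-exponential decays to obtain kobs. kcat and KM were derived through weighted Michaelis–Menten fits across concentrations.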

glucosamine-6-phosphate [2] = variants of: B1; experiment: self-cleavage kobs at 640 uM GlcN6P; higher = faster cleavage; RNA array
In short: as §1

glucosamine-6-phosphate [3] = variants of: B1; experiment: self-cleavage kobs at 2500 uM GlcN6P; higher = faster cleavage; RNA array
In short: as §1

glucosamine-6-phosphate [4] = variants of: B1; experiment: self-cleavage kobs at 10000 uM GlcN6P; higher = faster cleavage; RNA array
In short: as §1

Variant	self-cleavage kobs at 160 uM GlcN6P (glucosamine-6-phosphate [1]) [s⁻¹]	self-cleavage kobs at 640 uM GlcN6P (glucosamine-6-phosphate [2]) [s⁻¹]	self-cleavage kobs at 2500 uM GlcN6P (glucosamine-6-phosphate [3]) [s⁻¹]	self-cleavage kobs at 10000 uM GlcN6P (glucosamine-6-phosphate [4]) [s⁻¹]
AUAAAAGCGCCAGAACUACAGAAAUGUAGUUGACGAGGAGAAGGUUUAUGGAAUUUUCGGCGGAUGCCUCCAAA [G41A C50G]	< 1e-05	< 1e-05	< 1e-05	< 1e-05
AUAAAAGCGCCAGAACUACAGAAAUGUAGUUGACGAGGAGUAGGUUUAUCGAAUUUUCAGCGGAUGCCUCCAAA [G41U G59A]	< 1e-05	< 1e-05	< 1e-05	
AUAAAAGCGCCAGAACUACAGAAAUGUAGUUGACGAGGAGCAGGUUUAUCGCAUUUUCGACGAAUACUUCCAAA [G41C A52C G60A G63A G66A C68U]	< 1e-05	< 1e-05		
AUAAAAGCGCCAGAACUACAGAAAUGUAGUUGACGAGGAGGAAAUUUAUCGAAUUUUCGGCGGAUGCCUCCAAA [G43A G44A]	< 1e-05	< 1e-05	< 1e-05	< 1e-05
AUAAAAGCGCCAGAACUACAGAAAUGUAGUUGACGAGGAGGCGGUUUAUCGACUUUUCGGCGGAUGCCUCCAAA [A42C A53C]	< 1e-05	< 1e-05		
AUAAAAGCGCCAGAACUACAGAAAUGUAGUUGACGAGGACGAGAUUUAUCGACUUUUCGGCGGAUGCCUCCAAA [G40C G44A A53C]	< 1e-05	< 1e-05	< 1e-05	
AUAAAAGCGCCAGAACUACAGAAAUGUAGUUGACGAGGAGUAGCUUUAUCGAACUUUCGGCGGAUGCCUCCAAA [G41U G44C U54C]	< 1e-05	< 1e-05	< 1e-05	
AUAAAAGCGCCAGAACUACAGAAAUGUAGUUGACGAGGAGUAGGCUUAUCGAAUUUUCUGCGGAUGCCUCCAAA [G41U U45C G59U]	< 1e-05	< 1e-05	< 1e-05	
AUAAAAGCGCCAGAACUACAGAAAUGUAGUUGACGAGGAGGCGGUUUAUCGAAUUUUCGGCCUAUGCCACCAAA [A42C G62C G63U U69A]	< 1e-05		< 1e-05	
AUAAAAGCGCCAGAACUACAGAAAUGUAGUUGACGAGGAGUAGGUUUAUCGAAUUUUCGGCGGAUGCCGCCAAA [G41U U69G]	< 1e-05	< 1e-05	< 1e-05	< 1e-05
AUAAAAGCGCCAGAACUACAGAAAUGUAGUUGACGAGGAGGCGAUUUACCGAAUUUUCGGCGGAUGCCUCCAAA [A42C G44A U49C]	< 1e-05	< 1e-05	< 1e-05	
AUAAAAGCGCCAGAACUACAGAAAUGUAGUUGACGAGGAGGCGGUUCAUCGAAUUUUCGGCGGAUGCCUCCAAA [A42C U47C]	< 1e-05	< 1e-05	< 1e-05	
AUAAAAGCGCCAGAACUACAGAAAUGUAGUUGACGAGGAGUAGGUUUAUCAAAUUUUCGGCGGAUGCCUCCAAA [G41U G51A]	< 1e-05	< 1e-05	< 1e-05	< 1e-05
AUAAAAGCGCCAGAACUACAGAAAUGUAGUUGACGAGGAUGAGGAUUAUCGAAUUGUCGGCGGAUGCCUCCAAA [G40U U45A U56G]	6.56e-05 ± 1.6e-05		0.000611 ± 0.00014	
AUAAAAGCGCCAGAACUACAGAAAUGUAGUUGACGAGGAGUAGGUUUAUCGAAUUUUCGGCGCAUGCCUCCAAA [G41U G63C]	< 1e-05		< 1e-05	< 1e-05
AUAAAAGCGCCAGAACUACAGAAAUGUAGUUGACGAGGAGGGGGUUUAUGGAAUUUUCGGCGGGUGCCUCCAAA [A42G C50G A64G]	< 1e-05			
AUAAAAGCGCCAGAACUACAGAAAUGUAGUUGACGAGGAGGUGGUUCAUCGCAUUUUCGGCGGAUGCCUCCAAA [A42U U47C A52C]	< 1e-05		< 1e-05	
AUAAAAGCGCCAGAACUACAGAAAUGUAGUUGACGAGGAGUAGGUUUAUCGAAUUUUCGGCGGAUGCUCCCAAA [G41U C68U U69C]	< 1e-05	< 1e-05	< 1e-05	
AUAAAAGCGCCAGAACUACAGAAAUGUAGUUGACGAGGAGAAGGUUUAUCUAAUUUUCGGCGGAUGCCUCCAAA [G41A G51U]	< 1e-05	< 1e-05	< 1e-05	< 1e-05
AUAAAAGCGCCAGAACUACAGAAAUGUAGUUGACGAGGACGAGGUUUAUCGAAUUUUCGGCGGAUGCCACCAAA [G40C U69A]	< 1e-05		< 1e-05	
AUAAAAGCGCCAGAACUACAGAAAUGUAGUUGACGAGGAGAAGGUUUAUCGAAUGUUCGGCGGAUGCCUCAAAA [G41A U55G C71A]	5.4e-05 ± 1.6e-05	8.59e-05 ± 2.3e-05	0.000196 ± 3.5e-05	
AUAAAAGCGCCAGAACUACAGAAAUGUAGUUGACGAGGAGGCGGUUUAUCGGAUAUGCGGCGGAUGCUUUCAAA [A42C A52G U55A U57G C68U C70U]	< 1e-05	< 1e-05	< 1e-05	
AUAAAAGCGCCAGAACUACAGAAAUGUAGUUGACGAGGAGGGGGUUUAUCGAAUUUUCGGCCGAUGCCUCCAAA [A42G G62C]	< 1e-05	< 1e-05	< 1e-05	< 1e-05
AUAAAAGCGCCAGAACUACAGAAAUGUAGUUGACGAGGAGAAGGUUUAUCGAAUUUUCGCCGGAUGCCUCCAAA [G41A G60C]	< 1e-05	< 1e-05		< 1e-05
AUAAAAGCGCCAGAACUACAGAAAUGUAGUUGACGAGGAGGCGGUUUAUCGAAUUUUCGGUGGAUGCCUCCAAA [A42C C61U]	< 1e-05	< 1e-05	< 1e-05	
AUAAAAGCGCCAGAACUACAGAAAUGUAGUUGACGAGGAUGACGUUUAUCGAAUUUUCGGCGGAUGCGUCCAAA [G40U G43C C68G]	0.000486 ± 0.00015	0.000552 ± 0.00012	0.00105 ± 0.00026	
